Test results as given in patent publication US20190309059A1 (SHANGHAI PHARMAEXPLORER, published 2019).

T1: mouse IL-13 (purchased from sino biological) (mouse, UniProt P20109 19-131)
T1 chain: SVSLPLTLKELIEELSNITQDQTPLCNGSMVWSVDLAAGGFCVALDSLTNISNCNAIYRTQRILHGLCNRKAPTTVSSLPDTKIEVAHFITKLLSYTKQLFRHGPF

B1: c35E2C3 (mouse-human chimeric IL-13 antibody) (antibody, V domains shown)
VH: EVQLQESGPGLAKPSQTLSLTCSVTGYSITSDYWNWIRKFPGNKLEYMGYISYNGNTYYNPSLKSQISITRDTSKNQLYLQLKSATTEDTATYYCARLAKWTWYFDIWGTGTTVTVSS
VL: DIQMNQSPSSLSASLGDTITITCHASQNINVWLSWYQQKPGSLPKLLIYKASDLHTGVPSRFSGSGSGTGFTLTISSLQPEDIATYYCQQGQSYPYTFGGGTKLEIK
B2: 28A2E11 (lead antibody, mouse hybridoma) (antibody, V domains shown)
VH: EVQLQQSGAELVKPGASVKLSCTASGFNIKDYYMHWVKQRTEQGLEWIGRIDPEDGETKYAPKFHDKATLTADTSSNTAYLQFSSLASEDTAVYYCTRYDYYGPFAYWGQGTLVTVSA
VL: QAVVTQESVLTTSPGETVTLTCRSSTGAVTTSNYANWVQEKPDHLFTGLIGGTNNRAPGVPARFSGSLIGDKAALTITGAQTEDEAIYFCALWYINHFIFGSGTKVTVL
notes: Mouse monoclonal antibody purified from hybridoma supernatant on Protein G
B3: c28A2E11 (mouse-human chimeric IL-13 antibody) (antibody, V domains shown)
VH: EVQLQQSGAELVKPGASVKLSCTASGFNIKDYYMHWVKQRTEQGLEWIGRIDPEDGETKYAPKFHDKATLTADTSSNTAYLQFSSLASEDTAVYYCTRYDYYGPFAYWGQGTLVTVSA
VL: QAVVTQESVLTTSPGETVTLTCRSSTGAVTTSNYANWVQEKPDHLFTGLIGGTNNRAPGVPARFSGSLIGDKAALTITGAQTEDEAIYFCALWYINHFIFGSGTKVTVL
B4: 29D9H8 (lead antibody, mouse hybridoma) (antibody, V domains shown)
VH: QVQLQQSGAELVRPGASVTLSCKASGYTFTDYEMHWVKQTPVHGLEWIGGIDPETGGTASNQKFKGKAILTADKSSSTAYMELRSLTSEDSAVYYCTSGDYFGGGPFAYWGQGTLVTVSA
VL: DIKMTQSPSSMYASLGERVTITCKASQDINSYLSWFQQKPGKSPKTLIYRANRLVDGVPSRFSGSGSGQDYSLTISSLDYEDMGIYYCLQYDEFPYTFGGGTKLEIK
notes: as for B2
B5: c29D9H8 (mouse-human chimeric IL-13 antibody) (antibody, V domains shown)
VH: QVQLQQSGAELVRPGASVTLSCKASGYTFTDYEMHWVKQTPVHGLEWIGGIDPETGGTASNQKFKGKAILTADKSSSTAYMELRSLTSEDSAVYYCTSGDYFGGGPFAYWGQGTLVTVSA
VL: DIKMTQSPSSMYASLGERVTITCKASQDINSYLSWFQQKPGKSPKTLIYRANRLVDGVPSRFSGSGSGQDYSLTISSLDYEDMGIYYCLQYDEFPYTFGGGTKLEIK

Key:
[1] = target: cynomolgus IL-13 (purchased from sino biological) (cynomolgus) (UniProt Q0PW92); assay: ELISA, cynomolgus IL-13; antibody at 66.7 nM
Chain of cynomolgus IL-13 (purchased from sino biological) (cynomolgus) (Q0PW92 entry or part of it): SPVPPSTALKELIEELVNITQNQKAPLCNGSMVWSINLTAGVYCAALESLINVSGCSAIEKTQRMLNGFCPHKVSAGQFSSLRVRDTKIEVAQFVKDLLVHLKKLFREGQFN

[2] = target: cynomolgus IL-13 (purchased from sino biological) (cynomolgus) (UniProt Q0PW92); assay: ELISA, cynomolgus IL-13; antibody at 13.3 nM
[3] = target: his-labeled human IL-13 (immunogen A) (human) (UniProt P35225); assay: ELISA, biotin-immunogen A; antibody at 0.00 nM (8th dilution)
[4] = target: his-labeled human IL-13 (immunogen A) (human) (UniProt P35225); assay: ELISA, biotin-immunogen A; antibody at 0.000 nM
[5] = target: his-labeled human IL-13 (immunogen A) (human) (UniProt P35225); assay: ELISA, biotin-immunogen A; antibody at 0.001 nM
[6] = target: cynomolgus IL-13 (purchased from sino biological) (cynomolgus) (UniProt Q0PW92); assay: ELISA, cynomolgus IL-13; antibody at 0.107 nM
[7] = target: his-labeled human IL-13 (immunogen A) (human) (UniProt P35225); assay: ELISA, biotin-immunogen A; antibody at 0.00 nM (6th dilution)
[8] = target: his-labeled human IL-13R130Q variant (human) (UniProt P35225); assay: ELISA, IL-13R130Q variant; antibody at 0.004 nM
Chain of his-labeled human IL-13R130Q variant (human) (P35225 other isoform, or with tags, fused parts or gaps mutant): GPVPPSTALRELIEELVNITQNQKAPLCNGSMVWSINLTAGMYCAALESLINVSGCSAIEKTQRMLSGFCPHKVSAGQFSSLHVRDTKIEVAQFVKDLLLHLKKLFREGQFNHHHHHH

[9] = target: his-labeled human IL-13 (immunogen A) (human) (UniProt P35225); assay: ELISA, biotin-immunogen A; antibody at 0.02 nM
[10] = target: his-labeled human IL-13R130Q variant (human) (UniProt P35225); assay: ELISA, IL-13R130Q variant; antibody at 13.33 nM
[11] = target: cynomolgus IL-13 (purchased from sino biological) (cynomolgus) (UniProt Q0PW92); assay: ELISA, cynomolgus IL-13; antibody at 0.11 nM
[12] = target: cynomolgus IL-13 (purchased from sino biological) (cynomolgus) (UniProt Q0PW92); assay: ELISA, cynomolgus IL-13; antibody at 13.33 nM
[13] = target: his-labeled human IL-13 (immunogen A) (human) (UniProt P35225); assay: ELISA, biotin-immunogen A; antibody at 2.67 nM
[14] = target: his-labeled human IL-13 (immunogen A) (human) (UniProt P35225); assay: ELISA, biotin-immunogen A; antibody at 0.00 nM (as printed, 7th dilution)
[15] = target: his-labeled human IL-13R130Q variant (human) (UniProt P35225); assay: ELISA, IL-13R130Q variant; antibody at 66.67 nM
[16] = target: his-labeled human IL-13R130Q variant (human) (UniProt P35225); assay: ELISA: IL-13R130Q variant on the plate, antibody titrated, HRP secondary antibody, OD450
[17] = target: his-labeled human IL-13 (immunogen A) (human) (UniProt P35225); assay: FACS blocking assay: antibody titrated with biotin-labeled immunogen A (30 ng/mL); blocked partner IL-13Ra1/IL-4Ra on HEK293 clone 4C1; Alexa 488 streptavidin
[18] = target: his-labeled human IL-13 (immunogen A) (human) (UniProt P35225); assay: SPR (Biacore), antibody captured by anti-human Fc, immunogen A as analyte
[19] = target: his-labeled human IL-13 (immunogen A) (human) (UniProt P35225); assay: ELISA: biotin-labeled immunogen A on streptavidin plate, antibody titrated, HRP secondary antibody, OD450
[20] = target: his-labeled human IL-13 (immunogen A) (human) (UniProt P35225); assay: FACS blocking assay: antibody titrated with biotin-labeled immunogen A (20 ng/mL); blocked partner IL-13Ra2 on HEK293 clone 1A1; Alexa 488 streptavidin
[21] = target: T1, mouse IL-13 (purchased from sino …); assay: ELISA, mouse IL-13; antibody at 0.11 nM
[22] = target: T1, mouse IL-13 (purchased from sino …); assay: ELISA, mouse IL-13; antibody at 0.001 nM
[23] = target: T1, mouse IL-13 (purchased from sino …); assay: ELISA, mouse IL-13; antibody at 0.000 nM
[24] = target: his-labeled human IL-13 (immunogen A) (human) (UniProt P35225); assay: ELISA, biotin-immunogen A; antibody at 0.021 nM
[25] = target: his-labeled human IL-13 (immunogen A) (human) (UniProt P35225); assay: ELISA, biotin-immunogen A; antibody at 0.004 nM
[26] = target: T1, mouse IL-13 (purchased from sino …); assay: ELISA, mouse IL-13; antibody at 13.33 nM
[27] = target: T1, mouse IL-13 (purchased from sino …); assay: ELISA, mouse IL-13; antibody at 0.021 nM
[28] = target: cynomolgus IL-13 (purchased from sino biological) (cynomolgus) (UniProt Q0PW92); assay: ELISA, cynomolgus IL-13; antibody at 66.67 nM
[29] = target: T1, mouse IL-13 (purchased from sino …); assay: ELISA, mouse IL-13; antibody at 2.67 nM
[30] = target: T1, mouse IL-13 (purchased from sino …); assay: ELISA, mouse IL-13; antibody at 0.53 nM
[31] = target: cynomolgus IL-13 (purchased from sino biological) (cynomolgus) (UniProt Q0PW92); assay: ELISA: cynomolgus IL-13 on the plate, antibody titrated, HRP secondary antibody, OD450

| Molecule | OD450 nm [1] | OD450 nm [2] | OD450 nm [3] | OD450 nm [4] | OD450 nm [5] | OD450 nm [6] | OD450 nm [7] | OD450 nm [8] | OD450 nm [9] | OD450 nm [10] | OD450 nm [11] | OD450 nm [12] | OD450 nm [13] | OD450 nm [14] | EC50 (read off the curve) [16] [nM] | IC50 (read off the curve) [17] [nM] | Kd [18] [nM] | koff [18] [s⁻¹] | EC50 (read off the curve) [19] [nM] | IC50 (read off the curve) [20] [nM] | also measured |
| --- | --- | --- | --- | --- | --- | --- | --- | --- | --- | --- | --- | --- | --- | --- | --- | --- | --- | --- | --- | --- | --- |
| IgG control (mouse IgG) (antibody) | 0.1 | 0.1 | 0.07 | 0.05 | 0.05 | 0.059 | 0.08 | 0.07 | 0.07 | 0.09 | 0.07 | 0.21 | 0.08 | 0.07 |  |  |  |  |  |  |  |
| B1 | 3.8 | 3.1 | 0.06 |  |  | 0.181 | 0.09 | 0.13 | 0.18 | 3.3 |  |  | 2.4 | 0.07 | 0.3 | 0.5 | 0.863 | 0.00026 | 0.4 | 0.3 | OD450 nm [15]: 3.4; kon [18]: 300000 M⁻¹ s⁻¹ |
| B2 |  |  |  | 0.05 | 0.07 |  |  |  |  |  | 0.35 | 1.78 | 1.69 |  |  | 0.7 |  |  | 0.2 | 0.6 | OD450 nm [21]: 0.07; OD450 nm [22]: 0.06; OD450 nm [23]: 0.07; OD450 nm [24]: 0.28; OD450 nm [25]: 0.1; OD450 nm [26]: 0.08; OD450 nm [27]: 0.08; OD450 nm [28]: 1.99; OD450 nm [29]: 0.08; OD450 nm [30]: 0.07 |
| B3 | 3.4 | 2.4 | 0.06 |  |  | 0.183 | 0.1 |  | 0.25 |  |  |  | 2.6 | 0.07 | 0.3 | 1 | 7.98 | 0.00438 | 0.2 | 1 | kon [18]: 549000 M⁻¹ s⁻¹ |
| B4 |  |  |  | 0.06 | 0.07 |  |  |  |  |  | 1.24 | 2.46 | 1.61 |  |  | 0.3 |  |  | 0.1 | 0.2 | OD450 nm [21]: 0.07; OD450 nm [22]: 0.07; EC50 (read off the curve) [31]: 0.1 nM; OD450 nm [23]: 0.07; OD450 nm [24]: 0.34; OD450 nm [25]: 0.12; OD450 nm [26]: 0.09; OD450 nm [27]: 0.06; OD450 nm [28]: 2.52; OD450 nm [29]: 0.07; OD450 nm [30]: 0.06 |
| B5 | 3.6 | 3.5 |  |  |  | 1.23 |  | 0.2 |  | 2.99 |  |  |  |  | 0.2 | 0.5 | 0.0324 | 0.000813 |  | 0.2 | OD450 nm [15]: 3.06; EC50 (read off the curve) [31]: 0.2 nM; kon [18]: 2.51e+07 M⁻¹ s⁻¹ |
